# Molecular target: Hfq WT (Escherichia coli K-12 MG1655, UniProt P0A6X3 1-102)
# Assay: EMSA; EMSA: 20 mM Tris-HCl pH 7.6, 0.5 M NaCl, 1 mM EDTA, 1% glycerol, 20 min at 25 C; native PAGE in 0.5x TBE at 4 C
# Details: protein: recombinant; tags: His tag removed with AcTEV protease; label: 3' fluorescein; single-stranded
binder,measurement,value
"GGGACAGUAUUUG (ssRNA, 3' fluorescein) [BR13]",binding result,binds
